Measured values: paper PMC12407086

Columns and labels:
[1] = target: recombinant human desmoglein-1 (DSG-1), purified, full-length (human) (UniProt Q02413); experiment: single-molecule force spectroscopy (AFM); AFM tips functionalized with DSG-1 against living S. aureus AD08
[2] = target: recombinant human desmoglein-1 (DSG-1), purified, full-length (human) (UniProt Q02413); experiment: dynamic force spectroscopy (AFM, SMFS); DSG-1 tips against L. lactis SdrD^(+); retraction speed 0.5, 1, 3, 5 and 10 μm s^−1; Bell-Evans fit; only adhesion forces of >1000 pN considered
[3] = target: recombinant human desmoglein-1 (DSG-1), purified, full-length (human) (UniProt Q02413); experiment: single-molecule force spectroscopy (AFM); DSG-1 tips against L. lactis SdrD^(+) in the presence of 1 mM EDTA (15 min incubation)
[4] = target: pPROX^∗ peptide (cysteine-bearing peptide based on the p_(PROX) sequence of DSG-1) (human); experiment: single-molecule force spectroscopy (AFM); AFM tips carrying pPROX^∗ by a PEG27-maleimide linker against living L. lactis SdrD^(+); pulling speed 1 μm s^−1
Sequence of pPROX^∗ peptide (cysteine-bearing peptide based on the p_(PROX) sequence of DSG-1) (human) (Q02413 other isoform, or with tags, fused parts or gaps): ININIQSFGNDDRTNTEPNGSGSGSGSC

[5] = target: recombinant human desmoglein-1 (DSG-1), purified, full-length (human) (UniProt Q02413); experiment: single-molecule force spectroscopy (AFM); DSG-1 tips against L. lactis SdrD^(+) after EDTA, with CaCl2 added to 10 mM (15 min incubation)
[6] = target: recombinant human desmoglein-1 (DSG-1), purified, full-length (human) (UniProt Q02413); experiment: single-molecule force spectroscopy (AFM); AFM tips functionalized with DSG-1 against living L. lactis SdrD^(+) on a polystyrene dish; PBS, room temperature; approach and retraction 1 μm s^−1, applied force 250 pN, dwell time 0 s

Question: With “SdrD on the surface of Staphylococcus aureus AD08 (clinical isolate from an infected skin lesion of a patient with AD) (from UniProt Q2G0L4 36-1315) (natural protein)” as the substance, how does the rupture force (main peak) [1] read?
Answer: The rupture force (main peak) was 1550 pN.

Question: How did the koff [2] turn out when “serine-aspartate repeat protein D (SdrD) expressed on the surface of Lactococcus lactis MG1363 (pKS80::sdrD) (from UniProt Q2G0L4 36-1315) (natural protein)” was run?
Answer: Its koff is 1.4e-07 s⁻¹.

Question: What about the adhesion force with 1 mM EDTA [3] of the same substance?
Answer: Its adhesion force with 1 mM EDTA is 2160 pN.

Question: What about the adhesion frequency [4] of the same substance?
Answer: Its adhesion frequency is 33%.

Question: And the rupture force [4]?
Answer: Its rupture force is 1810 pN.

Question: What about the adhesion force with 10 mM Ca^2+ [5] of the same substance?
Answer: Its adhesion force with 10 mM Ca^2+ is 2600 pN.

Question: And the adhesion (rupture) force [6]?
Answer: The adhesion (rupture) force was 2080 pN.

Question: What about the binding probability [6] of the same substance?
Answer: The binding probability was 49%.
